B1: Double-stranded RNA-specific adenosine deaminase, residues 296 to 358; numbered along this chain, P55265 (parent)
chain: MAEIKEKICDYLFNVSDSSALNLAKNIGLTKARDINAVLIDMERQGDVYRQGTTPPIWHLTDK

Variants of: B1
Assay: abundance fitness (aPCA) (normalised: wild type 0, dead -1); higher = more abundant; growth selection in yeast, the domain comes from the species named
Settings: Homo sapiens

Abundance fitness, by site and new letter:
K63: M -0.619 | R 0.032 | S -0.367 | Y -0.634 | N -0.302 | P -0.341 | G -0.442 | D -0.162 | F -0.217 | Q -0.79 | T -0.297 | E -0.234 | C -0.258 | H -0.374
I57: L -0.281 | E -0.257 | D -0.191 | K -0.149 | N -0.352 | T -0.035 | Q -0.181 | R -0.125 | V -0.108 | H -0.185 | W -0.476 | S -0.265 | C -0.567 | M -0.008 | Y -0.846 | F -0.637 | A -0.316 | P -0.481 | G -0.449
P55: Y -0.491 | A -0.243 | D 0.06 | M -0.632 | Q -0.486 | H -0.435 | I -0.547 | F -0.396 | L -0.594 | T -0.25 | W -0.721 | S -0.288 | E -0.043 | K -0.49 | G -0.434 | V -0.298 | N -0.006 | R -0.698 | C -0.344
T53: A -0.033 | I -0.744 | R 0.238
D62: K 0.002 | W -0.445 | A 0.053 | Y -0.437 | I -0.708 | G -0.19 | Q 0.017 | L -0.437 | R -0.167 | S -0.083 | N -0.432 | M -0.409 | P -0.333 | E 0.072 | T -0.15 | C -0.185
L60: I -0.628 | T -0.551 | F -0.598 | M -0.295 | R -0.45 | W -0.793 | S -0.437 | G -0.436 | A -0.196 | D -0.356 | Q -0.764 | E -0.226 | K -0.494 | C -0.662 | Y -0.577 | V -0.516 | N -0.425
G52: M -0.812 | N -0.072 | L -0.764 | K -0.367 | W -0.518 | Y -0.765 | I -0.779 | S -0.387 | R -0.489 | T -0.659 | H -0.234 | V -0.638
W58: H -0.278 | N -0.296 | F -0.234 | R -0.242 | K -0.303 | M -0.362 | Q -0.152 | I -0.366 | V -0.488 | D -0.434 | Y -0.095 | P -0.409 | T -0.251 | S -0.254 | A -0.426 | C -0.384
H59: M -0.259 | L -0.613 | C 0.095 | N -0.224 | W -0.972 | P -0.524 | T -0.052 | D -0.375 | I -0.525 | E -0.301 | A 0.288 | G 0.215 | F -0.329 | Q -0.175 | Y -0.466 | V -0.282 | S 0.263 | R 0.281 | K 0.294
T61: F -0.737 | D -0.32 | V -0.193 | I -0.818 | S -0.052 | M -0.182 | Q -0.52 | P -0.411 | H -0.344 | R -0.282 | N -0.124 | E -0.483 | W -0.808
T54: N 0.306 | S 0.127 | A -0.04 | C -0.148 | P -0.722 | E 0.093 | G -0.32 | Y -0.386 | R -0.18 | W -0.513 | H 0.045 | L -0.448 | V -0.204 | K -0.024 | F -0.429
P56: D -0.447 | S -0.57 | K -0.539 | C -0.511

Reference: the Human Domainome abundance scans (Beltran et al. 2025)
